# Experimental data from the nanobody polyreactivity screen of Harvey et al. (2022).
# Experiment: yeast display, Sf9 membrane polyspecificity reagent, FACS + sequencing; frameworks hold sequencing errors
# Procedure, shortened: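 After 36–48 hours of galactose induction, yeast (Saccharomyces cerevisiae BJ5465) displaying a synthetic nanobody library were stained at 4 °C for 1 hour with 10% biotinylated, detergent-solubilized Sf9 membrane reagent. Streptavidin microbeads enriched the stained cells before FACS sorting into low and high (top ~1%) gates on anti-HA and streptavidin fluorescence. Each clone's polyreactivity label reflects its gate of origin.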
row,Sequence,polyreactivity (PSR sort gate)
1,QVQLVESGGGLVQAGGSLRLICAASGRIFGDNGMGWYTQAPGKERELVTYADSVKGRFTISRDNAKNTVYLQMNSLKPEDTAVYYCNKVPPRFSGLDENYWGQGTQVTVSS,low polyreactivity
2,QVQLVESGGGLVQAGGSLRLSCAASGIIFWRYAMGWYRQAPGKERELVASISSSGGRTYYADSVKGRFTISRDNAKNTVYLQMNSLKPEDTAVYYCAARGPYGYDLLYYWGQGTQVTVSS,high polyreactivity
3,QVQLVESGGGLVQAGGSLRLSCAASGRIFRYYAMGWYRQAPGKERELVAAITRGGRTNYADSVKGRFTISRDNAKNTVYLQMNSLKQEDTAFYYCAARNVFQSVHVRGGYWGQGTQVTVSS,high polyreactivity
4,QVQLVESGGGLVQAGGSLRLSCAASGITFIYYHMGWYRQAPGKERELVAAINWSGGRTYYADSVKGRFTISRDNAKNTVYVQMNSLIPEDTAVYYCAADSWRPVYLGYYWGQGTQVTVSS,high polyreactivity
5,QVQLVESGGGLVQAGGSLRLSCAASGFTFRIYTMGWYRQAPGKERELVAAIRWSDGTTYYADSVKGRFTISRDNAKNTVYLQMNSLKPEDTAVYYCAAYTYYYYYWGQGTQVTVSS,high polyreactivity
6,QVQLVESGGGLVQAGGSLRLSCAASGFTFQGNAKGCYIQAPGKERELVGAISYDGGSTYYADSVKGRFTISRDNAKNTVYLQMNSLKPEDTAVYYCAAYVGTWYYYWGQGTQVTVSS,high polyreactivity
7,QDQLVESGGGLVQAGGSLRLSCAASGSSFLVYAMGWYRQATGKEREFVAAIRGGGSTNYADSVKGRFTISRDNAMNTVYLQMNSLKPEDTAVYYCAAYLLYTPSMDYWGQGTQVTVSS,low polyreactivity
8,QVQLVESGGGLVQAGGSRRLRCAASGRTFWTYAMGWYRQAPGKEREFVAAISYSGSSTYADSVKGRFTISRDNATNTVYLQMKSLKPEDTAVYFCAAYLYTAVVAYGYVSWGQGTQVTVSS,low polyreactivity
9,QVQLVESGGGLDQAGGSLRLICAASGFTITNNAMGWYRQAPGKEREFVAAISASGGSTYYADSVKGRFTISRDNAKNTVYLQMNSLKPEDTAVYYCAVEPVYIVSEVLFDYWGQGTEVTVSS,low polyreactivity
10,QVQLVESWGGLVQAGGSLPLSCAASGFTFVSYAMGWSRQAPGKERELVAAISKRGGSTSYADSVKGRFTISRDNAKNTVYLQMNSLKPEDTAVYYCYKRSYAWSPHVDYWGQGTQVTVSS,high polyreactivity
11,QVQLGESGGGLVQAGGSLRLSCAASGITFTKYVMGWYRQAPGKERELVATIRWGASSTHYADSVKGRFTISRDNAKNTVYLQMNSLKPEDTAVYYCNADGWYGAVYWWFYGFDYWGQGTQVTVSS,low polyreactivity
12,QVQLVESGGGLVQAGGSLRLSCAASGRISLSNAMGWYRQAPGKEREFVAAITKRSDRTYYADSVKGRFTISRDNAKNTVYLQMNSLKPEDRAVYYCAAKPLFGTRDDYWGQGTQVTVSS,low polyreactivity
13,EVQLVESGGGLVQAGGSLRLSCAASGSIFYTNTMGWYRQAPGKERELVATGSTYYADSVKGRFTISRDNAKNTVYLQMNSLKPEDTAVYYCAKRGDFLTTRYESGSAASDYWGQGTQVTVSS,low polyreactivity
14,QVQLVESGGGLVQAGGSLRLSCAASGRIFAFYAMGWYRQAPGKERELVAAITWSGGSTYYADSVKGRFTISRDNAKNTVYLQMNSLKPEDTAVYYCAARYRHYFVRGGYWGQGTQVTVSS,high polyreactivity
15,QVQLVESGGGLVQAGGSLRLSCAASGSIFFINAMGWYRQAPGKERELVAAIRRGGSTYADSVKGRFTISRDNAKNTVYLQMNSLKPEDTAVYYCAARITWGATAKSRYSYLYDYWGQGTQVTVSS,high polyreactivity
16,QVQHVESGRCLFQAGGSLRLSCAASGSTFYNNALGWYRQAPGKERELVAVITDSGGRTYYADSVKGRFTISRDNAKNSVKLQMNSLKPEDCAVYYCAADIGYDVYNDYDYWGQGTQVTVSS,low polyreactivity
17,QVQLVESGGGLVQAGGSLRLSCAASGFTCGSYTMGWYRQAPGKERELVAVISRSGSSTYYADSVKGRFTISRDNAKNTVYLQMNSLKPEDTAVYYCNADYSRLGYDYWGQGTQVTVSS,high polyreactivity
18,QVQLVESGGGLVQAGGSLRLSCAASGLTFLWYAMGWYRQAPGKERELVAAITSGGRTKYADSVKGRFTISRDNAKNTVYLQMNSLKPEDTAVYYCAAYTQWWGYDYWGQGTLVTVSS,high polyreactivity
19,QVQLVESGGGLVQAGGSLRLSCAASGRIFYVYAMGWYRQAPGKERELVAAITSGGRTDYADSVKGRFTISRDNAKNTVYLQMNSLKPEDTAVYYCAVRGSYRGWYDYWGQGTQVTVSS,high polyreactivity
20,QVQLVESGGGLVQAGGSLRLSCAASGLTFYYNAMGWYRPAPGKERELVAAITWSTDSTYYADSVKGRFTISRDNAKNTVYLQMNSLKPEDTAVYYCAAAVDAFTNKQYYYWGQGTQVTVSS,low polyreactivity
21,QVQLVESGGCLVQAGGSLRLSCAASGGTFHRYAMGGYRQAPGKERELVAAISGSGASTYYADSVKGRFTISRDNAKNTVYLQMNSLKPEDTAVYYCNAYSYPYWYRYYYWGQGTQVTVSS,high polyreactivity
22,QVQLVESGGGLVQAGGSLRLSCAASGFIFDANAMGWYRQAPGKERELVAAISRRGGRTYYADSVKGRFTISRDNAKNTVYLQMNSLKPEDTAVYYCAADWPDASRYGGGYWGQGTQVTVSS,high polyreactivity

row,Sequence,polyreactivity (PSR sort gate)
1,QVQLVESGGGLVQAGGRLRLSCSASGLTVYRKAMGWSRQAPGKEREMVAAITSSGGRTYYADSVKGRFTISRDNAKNTVYLLMNSLKAEDTALYYCAADFCLGYYYWGQGTQVTVSS,high polyreactivity
2,QVQLVESGGGLVQAGGSLRLSCAASGRIFISYTMGWYRQAPGKDRELVAGIDSSGTSTYYADSVKGRFTISRDNAKNTVYLQMNSLKPEDTAVYYCNVDGNWKDTSTELDYWGQGTQVTVSS,low polyreactivity
3,QVQLVESGGGLVQAGGSLRLSCAASGSTFLYYAMGWYRPAPGKERELVAAIRWTAGSTYYADSVKGRFTISRDNAKNSVYLQMNSLKPEDTAVYYCAAVGYVRNYYTYEHWGQGTQVTVSS,low polyreactivity
4,QVHLVESVGGLVQAGGSLRLSCAASGFILAVYVLGWYRQAPGKDRELVAAISWSGGSTYYADSVKGRFTISRDNAKNTVYLQMNSLKPEATAVYYCNTVAKSPVKYDYWGQGTQVTVSS,high polyreactivity
5,QVQLVESGGGLVQAGRSLRLTCAASGRTFWWYAMGWYRQAPGKEWEFVAAISQRGTSTYYADSVKGRFTISRDNAKNTVYLQMNSLKPEDTAVYDCAATVYPSWYVLFTARRMDYWGQGTQVTVSS,high polyreactivity
6,QVQLVESGGGLVQAGGSLRLRCAASGFTFAPNAMGWYRQAPGKERELVAAITWSGGSTYYADSVKGRFTISRDNAKNTVYVQMNSLKPEDTAVYYCNAVSRSTVTGQHDFWGQGTQVTVSS,high polyreactivity
7,QVQLVESGGGLVQAGGSLRLSCAASGSTFDNYAMGWNRQAPGKERELVADITWSGGSTYYADSVKGRFTSSRDNAKNTVYLQMNSLKPEDSAVYYCNSAGYYTKYDYWGQGTQVTVSS,low polyreactivity
8,QVQLVESGGGLVQAGGSLRLSCAASGSIFDFNTMGWYIQAPGKERELVAAISQRTGRTYYADSVKGRFTISRDKAKNTVYLQMNSLKPEDTAVYYCAKVAVAGRGSGNYINHRFEYWGQGTQVTVSS,high polyreactivity
9,QVQLVESGGGLVQAGGSLRLSCAASGITIRYYAMGWYRQAPGKERELVAAITRRGGSTSYADSVKGRFTISRDNAKNTVYLQMNSLKPEDTAVYYCNARKYTNQATYDYWGQGTQVTVSS,high polyreactivity
10,QVQLVESGGGLVQAGGSLRLSCAASGLTFVVYAMGWYRPAPGKERELVAASDFSGGDTYYADSVKGRFTISRDNAKNTVYLQRNSLKPEDTADYYCAAEYYGPSYYIGFDYWGQGTQVTVSS,high polyreactivity
11,QVQLVESGGGLVQAGGSLRLSCAASGRTFKNYAMGWYRQAPGKERELVAAISSGGGRTKYADSVKGRFTISRDNAKNSVYLQMNSLKPEDTAVYYCAAAYYYRDDYWGQGTQVTVSS,high polyreactivity
12,QVQLVESGGGLVQAGGSLRLSCAASAWYAMGWYRQAPGKEREFVAAITFSGSSTYYADSVKGRFTISRDNAKNTVYLQMNSLKPEDTAVYYCNADWWEWGQGTQVTVSS,low polyreactivity
13,QVQLQESGGGLVQAGGSPRLSCAASDNIFPDSGMCWYRQAPGKERELVATIGFGATRNYADSVKGRFTISRDNAKNTVYLQMNSLQPEDTAVYYCAADPLNYQYFCYWGQGTQVTVSS,low polyreactivity
14,QVQLVESGGGLVQAGGSLRLSCAASGRIFSHNAMGWYRQAPGKERELVAAISRSGGRTYYADSVKGRFTISRYNAKNTVYVQMKSLKPEDTAVYYCAADYRLKKSPGYSGEDDYWGQGTQVTVSS,high polyreactivity
15,QVQLVESVGGLVQAGGSLRISSAASGRTFERNTKGWYRQAPGKERELVAAITYDGGSTYYADSVKGRFTISRDNAKKTVYLKMNSLKPEDTAFYYCNAGGYEIYRSPFDYWGQGSQVTVSS,low polyreactivity
16,QVQLVESGGGLVQAGGSLRLSSAASGSIFSSYAMGWYRQAPGKERELVAAITKRADRTNYADSVKGRFTISRDNAKNTVYLQMNSLKPEDTAVYYCNAEGQNDHPSNGYISYKYDYWGQGTQVTVSS,low polyreactivity
17,QVQLVESVGGLVQAGGSLRLSCAASGRIFTLYAMGWYRQAPGKERELVAAISWSGGSTYYADSVKGRFTISRDNAKNTVYLQMNSLKPEDTAVYYCAATWYRYYSIPRYDSWGQATQVTVSS,high polyreactivity
18,QVQLVESGGGLVQAGGSLRLSCAASGNTFPSYAMGWYRQAPGKERQLVAAITSGGRTYYADSVKGRFTISRDNAKNTVYLQMNSLKPEDTAVYYCAADWVVRYPWYRYYYWGPGTQVTVSS,high polyreactivity
19,QVQLVESGGGLVQAGGSLRLSCAASGSIFYWYAMGWYRQAPGKERELVAAISRNGGNTYYADSVKGRFTISRDNAKNTVYLQMNSLKPEDTAVYYCAVAGTVLSHMGYWGQGTQVTVSS,low polyreactivity
20,QVHLVESGAGLVQAGGSLRLSCAASGRVFYYYAMGWYRQAPGKEREFVATISWSGVRTYYADSVKGRFTISRDNAKNTVYLQMNSLKPEDTAVYYCNADYYSPKFPSGMNYWGQGTQVTVSS,high polyreactivity
21,QVQLVESGGGLVQAGGSLRLSCAASGRTFQYYTMGWYRQAPGKERELVAAITWRGGTTYYADSVKGRFTISRDNAKNTVYLQMNSLKPEDTAVYYCAAYSPDYGFDYWGQGTQVTVSS,high polyreactivity
